Where no end group is shown, it is not given here.

B1: BRD3(2), second bromodomain of BRD3 (domain or fragment, human)
chain: GKLSEHLRYCDSILREMLSKKHAAYAWPFYKPVDAEALELHDYHDIIKHPMDLSTVKRKMDGREYPDAQGFAADVRLMFSNCYKYNPPDHEVVAMARKLQDVFEMRFAKMP
notes: BRD3, human, second bromodomain; the crystallised construct may differ; source: E. coli BL21(DE3), purified (Ni-NTA, TEV, SEC)
B14: CREBBP bromodomain (domain or fragment, human)
chain: RKKIFKPEELRQALMPTLEALYRQDPESLPFRQPVDPQLLGIPDYFDIVKNPMDLSTIKRKLDTGQYQEPWQYVDDVWLMFNNAWLYNRKTSRVYKFCSKLAEVFEQEIDPVMQSLG
notes: the crystallised construct may differ; also called CBP; KAT3A; source: E. coli BL21(DE3), purified (Ni-NTA, TEV, SEC)

Conditions in all cases: both partners purified
Experiment [1] addresses T1, H4K12/16/20 peptide GKacGGAKacRHRKacV (human, acetyl-lysine at K12, K16 and K20 (residues 2, 6 and 10 of the peptide)).
T1 construct: histone H4, human; source: synthetic peptide
Description: ITC; as a1; rows with N of about 0.5 or 0.25: two or more bromodomains on one peptide, apparent binding constants, events not deconvoluted. Background: Isothermal titration calorimetry measures the heat released or taken up as one component is titrated into another.

The target of experiment [2] is T2, H4K8 peptide RGKGGKacGLGKGY (human, acetyl-lysine at K8 (residue 6 of the peptide)).
T2 construct: histone H4, human; source: synthetic peptide
Put plainly: ITC; peptide (mM stock) titrated into bromodomain (about 50 μM), by the concentrations in the tables; 10 or 15°C, 50 mM HEPES pH 7.5, 150 mM NaCl; single binding site model.

The target of experiment [3] is B14. The description is as above.
In experiment [4] the target is T3, EP300 bromodomain (human, UniProt Q09472 1040-1161).
T3 construct: the crystallised construct may differ; also called KAT3B; source: E. coli BL21(DE3), purified (Ni-NTA, TEV, SEC)
T3 sequence: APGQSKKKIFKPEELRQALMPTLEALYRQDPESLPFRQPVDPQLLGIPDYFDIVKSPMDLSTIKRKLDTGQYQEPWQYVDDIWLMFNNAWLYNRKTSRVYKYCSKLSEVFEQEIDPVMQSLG
Described as above.

In experiment [5] the target is FALZ bromodomain (human, UniProt Q12830 2914-3037). The experiment is described as above.
The target is the same in experiment [6]. The experiment is described as above. This is another data set of the same source.
Experiment [7] has as its target T4, H3K14 peptide KSTGGKacAPRKQY (human, acetyl-lysine at K14 (residue 6 of the peptide)).
T4 construct: histone H3, human; source: synthetic peptide
Described as above.

Experiment [8] addresses T5, H3K9 peptide KQTARKacSTGGKY (human, acetyl-lysine at K9 (residue 6 of the peptide)).
T5 construct: histone H3, human; source: synthetic peptide
The description is as above.

The target of experiment [9] is T4, H3K14 peptide KSTGGKacAPRKQY. The description is as above. This is another data set of the same source.
Experiment [10] concerns the target B1. The description is as above.

B1: the Kd in experiment [1] turned out to be 61.3 ± 1.9 µM.

B2: KIAA1240 bromodomain (domain or fragment, human)
chain: MEDQEENTLRELRLFLRDVTKRLATDKRFNIFSKPVDIEEVSDYLEVIKEPMDLSTVITKIDKHNYLTAKDFLKDIDLICSNALEYNPDKDPGDKIIRHRACTLKDTAHAIIAAELDPEFNKLCEEIKEARIKRG
notes: KIAA1240 protein, human, bromodomain; the crystallised construct may differ; also called ATAD2B; source: E. coli BL21(DE3), purified (Ni-NTA, TEV, SEC)
For the molecule B2, in experiment [2], the Kd came out at 150 ± 6.4 µM.

B3: H2BK85 peptide AHYNKacRSTITSRE (peptide)
peptide: AHYNK(Ac)RSTITSRE
notes: histone H2B, human; source: synthetic peptide
What is called stoichiometry N is a count of units in the complex or per binding partner. Consider B3, for which, in experiment [3], the Kd was determined as 66.2 ± 3.8 µM and the “stoichiometry N” value amounted to 0.98 ± 0.059.

B4: H3K56 peptide IRRYQKacSTELLY (peptide)
peptide: IRRYQK(Ac)STELLY
notes: histone H3, human; source: synthetic peptide
As for B4, in experiment [3], the Kd was found to be 13.8 ± 0.4 µM and the “stoichiometry N” value is 0.97 ± 0.013.

B5: H3K56 peptide GTVALREIRRYQKacS (peptide)
peptide: GTVALREIRRYQK(Ac)S
notes: as for B4
Turning to B5, the Kd in experiment [4] is 13.4 ± 0.5 µM; in experiment [3], 21.3 ± 1.4 µM. Besides, the “stoichiometry N” value came out at 0.98 ± 0.009 in experiment [4] and 0.96 ± 0.025 in experiment [3].

B6: H4K5 peptide SGRGKacGGKGLY (peptide)
peptide: SGRGK(Ac)GGKGLY
notes: histone H4, human; source: synthetic peptide
B6: in experiment [5], the Kd stood at 175 ± 13.3 µM and the “stoichiometry N” value worked out at 1 ± 0.17.

B7: poly-R peptide RRRRRKacRRRRRY (peptide)
chain: RRRRRK(Ac)RRRRRY
Regarding B7, in experiment [6], the Kd came out at 3.1 ± 0.1 µM and the “stoichiometry N” value was 1.

B8: CECR2 bromodomain (domain or fragment)
chain: not shown
notes: CECR2, human, bromodomain; the crystallised construct may differ; source: E. coli BL21(DE3), purified (Ni-NTA, TEV, SEC)
On to B8, for which the Kd in experiment [7] was determined as 43.9 ± 0.8 µM; in experiment [8] it was 189 ± 11.6 µM.

B9: H4K44 peptide GGVKacRISGLI (peptide)
peptide: GGVK(Ac)RISGLI
notes: as for B6
With B9, in experiment [4], the Kd was 132 ± 6.3 µM and the “stoichiometry N” value is 0.97 ± 0.088. In experiment [3], the Kd was determined as 82 ± 3.8 µM and the “stoichiometry N” value is 1.06 ± 0.01.

B10: PCAF bromodomain (domain or fragment, human)
chain: GKEKSKEPRDPDQLYSTLKSILQQVKSHQSAWPFMEPVKRTEAPGYYEVIRFPMDLKTMSERLKNRYYVSKKLFMADLQRVFTNCKEYNPPESEYYKCANILEKFFFSKIKEAGLID
notes: P300/CBP-associated factor, human, bromodomain; the crystallised construct may differ; also called KAT2B; source: E. coli BL21(DE3), purified (Ni-NTA, TEV, SEC)
B10 gave a Kd in experiment [9] of 188 ± 14.6 µM.

B11: H3K18 peptide GKAPRKacQLATKY (peptide)
peptide: GKAPRK(Ac)QLATKY
notes: as for B4
In the case of B11, in experiment [10], the Kd came to 67.1 ± 4.5 µM and the “stoichiometry N” value was determined as 1.06 ± 0.068.

B12: H4K44 peptide RRGGVKacRISGLY (peptide)
peptide: RRGGVK(Ac)RISGLY
notes: as for B6
Regarding B12, in [3], the Kd was 25.3 ± 0.6 µM and the “stoichiometry N” value came out at 1 ± 0.099.

B13: H3K36 peptide ATGGVKacKPHRY (peptide)
peptide: ATGGVK(Ac)KPHRY
notes: histone H3, human; the last Y is Y41 of H3; source: synthetic peptide
Regarding B13, the “stoichiometry N” value in experiment [4] is 1 ± 0.044; in experiment [3], 1. The molecule further returned a Kd in [3] of 71.4 ± 1 µM.

As for B14, the Kd in experiment [7] worked out at 734 ± 90.6 µM.

Values taken from publication PMC3326523 (Cell, 2012).
